In the Human Domainome abundance scans (Beltran et al. 2025) one finds abundance fitness data, which are given here for 61 substances.

± gives the uncertainty stated by the source.

The nature of this data set: abundance fitness (aPCA) (normalised: wild type 0, dead -1); higher = more abundant; growth selection in yeast, the domain comes from the species named. The note with it: Homo sapiens.
Substance “E3 ubiquitin-protein ligase NEDD4-like E201Q, Q96PU5” came in with an abundance fitness of -0.228 ± 0.12. To “E3 ubiquitin-protein ligase NEDD4-like E201R, Q96PU5” belongs -0.209 ± 0.057; to “E3 ubiquitin-protein ligase NEDD4-like E201S, Q96PU5”, -0.124 ± 0.061; to “E3 ubiquitin-protein ligase NEDD4-like E201T, Q96PU5”, -0.098 ± 0.1. With “E3 ubiquitin-protein ligase NEDD4-like E201V, Q96PU5”, the abundance fitness is -0.14 ± 0.052. To “E3 ubiquitin-protein ligase NEDD4-like E201W, Q96PU5” belongs -0.423 ± 0.065; to “E3 ubiquitin-protein ligase NEDD4-like E201Y, Q96PU5”, -0.278 ± 0.056; to “E3 ubiquitin-protein ligase NEDD4-like E232A, Q96PU5”, -0.173 ± 0.11.

“E3 ubiquitin-protein ligase NEDD4-like E232D, Q96PU5” yielded an abundance fitness of -0.354 ± 0.12. The figure for “E3 ubiquitin-protein ligase NEDD4-like E232G, Q96PU5” is -0.287 ± 0.12; for “E3 ubiquitin-protein ligase NEDD4-like E232H, Q96PU5” it is -0.574 ± 0.18. For the substance “E3 ubiquitin-protein ligase NEDD4-like E232I, Q96PU5”, the abundance fitness is -0.5 ± 0.31. To “E3 ubiquitin-protein ligase NEDD4-like E232K, Q96PU5” belongs -1.37 ± 0.43. In turn, “E3 ubiquitin-protein ligase NEDD4-like E232L, Q96PU5” came in with an abundance fitness of -0.158 ± 0.19. The figure for “E3 ubiquitin-protein ligase NEDD4-like E232M, Q96PU5” is -0.402 ± 0.12. To “E3 ubiquitin-protein ligase NEDD4-like E232N, Q96PU5” belongs 0.022 ± 0.072; to “E3 ubiquitin-protein ligase NEDD4-like E232P, Q96PU5”, 0.216 ± 0.17; to “E3 ubiquitin-protein ligase NEDD4-like E232R, Q96PU5”, -0.999 ± 0.24. The figure for “E3 ubiquitin-protein ligase NEDD4-like E232V, Q96PU5” is -0.901 ± 0.18.

Turning to “E3 ubiquitin-protein ligase NEDD4-like E232W, Q96PU5”, the abundance fitness was -0.98 ± 0.33.

As to “E3 ubiquitin-protein ligase NEDD4-like E232Y, Q96PU5”, the abundance fitness was -0.413 ± 0.27.

Regarding “E3 ubiquitin-protein ligase NEDD4-like G198A, Q96PU5”, the abundance fitness is -0.032 ± 0.069.

With “E3 ubiquitin-protein ligase NEDD4-like G198C, Q96PU5”, the abundance fitness is -0.171 ± 0.092. “E3 ubiquitin-protein ligase NEDD4-like G198E, Q96PU5” yielded an abundance fitness of -0.691 ± 0.092. To “E3 ubiquitin-protein ligase NEDD4-like G198F, Q96PU5” belongs -0.15 ± 0.086; to “E3 ubiquitin-protein ligase NEDD4-like G198H, Q96PU5”, -0.197 ± 0.11; to “E3 ubiquitin-protein ligase NEDD4-like G198I, Q96PU5”, -0.765 ± 0.15. The figure for “E3 ubiquitin-protein ligase NEDD4-like G198K, Q96PU5” is -0.103 ± 0.087; for “E3 ubiquitin-protein ligase NEDD4-like G198L, Q96PU5” it is -0.209 ± 0.054; for “E3 ubiquitin-protein ligase NEDD4-like G198M, Q96PU5” it is -0.058 ± 0.092.

Consider “E3 ubiquitin-protein ligase NEDD4-like G198N, Q96PU5”, for which the abundance fitness was -0.095 ± 0.11. The figure for “E3 ubiquitin-protein ligase NEDD4-like G198P, Q96PU5” is -0.077 ± 0.074; for “E3 ubiquitin-protein ligase NEDD4-like G198Q, Q96PU5” it is -0.075 ± 0.06.

Substance “E3 ubiquitin-protein ligase NEDD4-like G198R, Q96PU5” showed an abundance fitness of -0.238 ± 0.06. The figure for “E3 ubiquitin-protein ligase NEDD4-like G198S, Q96PU5” is -0.139 ± 0.057; for “E3 ubiquitin-protein ligase NEDD4-like G198T, Q96PU5” it is -0.239 ± 0.075; for “E3 ubiquitin-protein ligase NEDD4-like G198V, Q96PU5” it is -0.291 ± 0.062.

Substance “E3 ubiquitin-protein ligase NEDD4-like G198W, Q96PU5” gave an abundance fitness of -0.324 ± 0.095. Consider “E3 ubiquitin-protein ligase NEDD4-like G198Y, Q96PU5”, for which the abundance fitness is -0.049 ± 0.069.

“E3 ubiquitin-protein ligase NEDD4-like G207A, Q96PU5” returned an abundance fitness of -0.252 ± 0.052.

The substance “E3 ubiquitin-protein ligase NEDD4-like G207D, Q96PU5” gave an abundance fitness of -0.162 ± 0.056. To “E3 ubiquitin-protein ligase NEDD4-like G207E, Q96PU5” belongs -0.312 ± 0.066; to “E3 ubiquitin-protein ligase NEDD4-like G207F, Q96PU5”, -0.423 ± 0.056; to “E3 ubiquitin-protein ligase NEDD4-like G207H, Q96PU5”, -0.171 ± 0.066. The figure for “E3 ubiquitin-protein ligase NEDD4-like G207I, Q96PU5” is -0.96 ± 0.061. To “E3 ubiquitin-protein ligase NEDD4-like G207K, Q96PU5” belongs -0.128 ± 0.063; to “E3 ubiquitin-protein ligase NEDD4-like G207L, Q96PU5”, -0.432 ± 0.052; to “E3 ubiquitin-protein ligase NEDD4-like G207M, Q96PU5”, -0.27 ± 0.067. As to “E3 ubiquitin-protein ligase NEDD4-like G207N, Q96PU5”, the abundance fitness is 0.042 ± 0.067. To “E3 ubiquitin-protein ligase NEDD4-like G207P, Q96PU5” belongs -0.756 ± 0.053. “E3 ubiquitin-protein ligase NEDD4-like G207Q, Q96PU5” registered an abundance fitness of -0.192 ± 0.069. “E3 ubiquitin-protein ligase NEDD4-like G207R, Q96PU5” had an abundance fitness of -0.252 ± 0.051. “E3 ubiquitin-protein ligase NEDD4-like G207S, Q96PU5” yielded an abundance fitness of -0.182 ± 0.048. “E3 ubiquitin-protein ligase NEDD4-like G207T, Q96PU5”: the abundance fitness was -0.419 ± 0.055.

The substance “E3 ubiquitin-protein ligase NEDD4-like G207V, Q96PU5” came in with an abundance fitness of -0.803 ± 0.056. “E3 ubiquitin-protein ligase NEDD4-like G207W, Q96PU5” gave an abundance fitness of -0.738 ± 0.077. To “E3 ubiquitin-protein ligase NEDD4-like G207Y, Q96PU5” belongs -0.397 ± 0.06; to “E3 ubiquitin-protein ligase NEDD4-like H186A, Q96PU5”, -0.362 ± 0.069; to “E3 ubiquitin-protein ligase NEDD4-like H186C, Q96PU5”, -0.282 ± 0.093. The figure for “E3 ubiquitin-protein ligase NEDD4-like H186D, Q96PU5” is 0.168 ± 0.082; for “E3 ubiquitin-protein ligase NEDD4-like H186E, Q96PU5” it is -1.69 ± 0.14.
